From publication PMC3494860 (The Journal of Cell Biology, 2012) come the findings set out here.

The target of the test is T1, GST-PATJ (Drosophila melanogaster, UniProt Q9NB04 1-871).
T1 sequence (looked up): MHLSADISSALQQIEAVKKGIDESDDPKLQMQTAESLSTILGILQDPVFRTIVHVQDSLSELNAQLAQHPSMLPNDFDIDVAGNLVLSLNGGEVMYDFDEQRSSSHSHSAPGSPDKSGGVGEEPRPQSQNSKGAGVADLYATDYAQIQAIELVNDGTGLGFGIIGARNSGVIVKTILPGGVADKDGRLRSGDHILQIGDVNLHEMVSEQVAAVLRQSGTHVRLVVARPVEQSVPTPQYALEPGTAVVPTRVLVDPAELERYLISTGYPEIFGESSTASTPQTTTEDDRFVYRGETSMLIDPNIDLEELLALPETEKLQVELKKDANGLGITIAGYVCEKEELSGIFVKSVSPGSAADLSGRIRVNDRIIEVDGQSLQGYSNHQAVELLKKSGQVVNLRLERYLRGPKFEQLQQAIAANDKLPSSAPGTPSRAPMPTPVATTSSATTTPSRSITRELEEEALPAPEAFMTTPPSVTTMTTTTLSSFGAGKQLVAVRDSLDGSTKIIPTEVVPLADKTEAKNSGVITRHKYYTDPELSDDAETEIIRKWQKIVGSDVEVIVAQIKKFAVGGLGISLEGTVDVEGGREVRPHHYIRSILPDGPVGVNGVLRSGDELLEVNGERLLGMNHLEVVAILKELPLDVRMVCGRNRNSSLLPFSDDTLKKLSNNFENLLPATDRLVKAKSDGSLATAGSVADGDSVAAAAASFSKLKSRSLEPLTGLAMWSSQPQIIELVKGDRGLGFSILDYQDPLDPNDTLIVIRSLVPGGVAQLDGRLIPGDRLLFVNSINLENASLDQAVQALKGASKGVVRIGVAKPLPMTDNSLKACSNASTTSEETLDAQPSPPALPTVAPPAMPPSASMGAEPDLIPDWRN
Put plainly: pull-down.

B1: MBP-Sqh (natural protein, Drosophila melanogaster, UniProt P40423 1-174, looked up)
chain: MSSRKTAGRRATTKKRAQRATSNVFAMFDQAQIAEFKEAFNMIDQNRDGFVEKEDLHDMLASLGKNPTDDYLDGMMNEAPGPINFTMFLTLFGERLQGTDPEDVIKNAFGCFDEENMGVLPEDRLRELLTTMGDRFTDEDVDEMYREAPIKNGLFDYLEFTRILKHGAKDKDEQ
Turning to B1, the binding result is “binds”.
